The target in assay [1] is T1, mouse LAG-3 overexpressed on HEK293E cells (mouse, UniProt Q61790 24-521).
T1 construct: whole, on cells; also called HEK293E-mLAG3; mLAG3 (Mouse)
T1 sequence (looked up): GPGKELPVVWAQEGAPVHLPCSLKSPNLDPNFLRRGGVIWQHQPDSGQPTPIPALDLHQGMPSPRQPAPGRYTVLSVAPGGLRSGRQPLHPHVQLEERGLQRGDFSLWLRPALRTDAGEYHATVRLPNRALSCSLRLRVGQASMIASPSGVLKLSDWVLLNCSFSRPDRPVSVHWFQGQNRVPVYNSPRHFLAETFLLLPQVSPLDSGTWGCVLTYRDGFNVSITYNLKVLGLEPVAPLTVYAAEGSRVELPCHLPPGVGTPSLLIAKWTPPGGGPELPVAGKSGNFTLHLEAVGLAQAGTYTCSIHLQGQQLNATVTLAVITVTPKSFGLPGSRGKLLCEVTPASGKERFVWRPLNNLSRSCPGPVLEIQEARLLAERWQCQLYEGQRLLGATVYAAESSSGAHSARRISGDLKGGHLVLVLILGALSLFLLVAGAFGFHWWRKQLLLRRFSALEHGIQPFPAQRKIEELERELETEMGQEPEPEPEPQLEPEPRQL
Nature of the assay: flow cytometry, HEK293E cells overexpressing LAG-3, antibody 2 µg/ml. The protocol:
(§1) After that, the cells were washed three times with PBS containing 2% FBS and then subjected to the reaction for 30 minutes at 4° C. with anti-human IgG antibody (#FI-3000, Vectorlabs) linked with FITC fluorescent. The cells were washed by the same washing process as above followed by suspension in 0.2 ml PBS containing 2% FBS. The cells were then analyzed by FACSCanto II flow cytometer.
(Flow cytometry measures light scatter and fluorescence of single cells or particles in a stream.)

The target of assay [2] is T2, human LAG-3 overexpressed on cells (human, UniProt P18627 23-525).
T2 sequence (looked up): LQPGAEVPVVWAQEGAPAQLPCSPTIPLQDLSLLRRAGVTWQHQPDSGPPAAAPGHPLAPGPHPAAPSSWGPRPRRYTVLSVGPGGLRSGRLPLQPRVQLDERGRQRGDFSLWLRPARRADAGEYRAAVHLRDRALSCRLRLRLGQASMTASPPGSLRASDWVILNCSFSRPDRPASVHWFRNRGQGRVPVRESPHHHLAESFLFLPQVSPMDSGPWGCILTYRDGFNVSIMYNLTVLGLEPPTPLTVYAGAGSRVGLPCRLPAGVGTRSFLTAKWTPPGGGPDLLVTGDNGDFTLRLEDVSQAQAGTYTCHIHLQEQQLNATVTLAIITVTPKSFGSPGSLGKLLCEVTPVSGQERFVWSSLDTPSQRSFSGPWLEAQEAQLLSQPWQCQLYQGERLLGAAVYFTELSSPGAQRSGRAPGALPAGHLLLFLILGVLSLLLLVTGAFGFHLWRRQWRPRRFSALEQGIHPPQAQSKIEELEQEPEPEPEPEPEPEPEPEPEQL
Nature of the assay: cell-based or functional assay.

Assay [3] addresses T1, mouse LAG-3 overexpressed on HEK293E …. Nature of the assay: flow cytometry, HEK293E cells overexpressing mouse LAG-3. The protocol: as §1
Assay [4] addresses T2, human LAG-3 overexpressed on cells. Nature of the assay: flow cytometry, HEK293E cells overexpressing LAG-3, antibody 2 µg/ml. The protocol: as §1

From patent US20210238283A1 (Y BIOLOGICS, published 2021) come the findings set out here.

B1: LAG3-1E09_CDR_1D04 (antibody, V domains shown)
VH: EVQLVESGGDLVKPGGSLRLSCAASGFSFSDHYMNWIRQAPGKGLEWVAYIDTSATYIYYADSVKGRFTISRDNAKNSLYLQMNSLRAEDTAVYYCARDNWGSLDYWGQGTLVTVSS
VL: DIQMTQSPSSLSASVGDRVTITCQASQDISNYLNWYQQKPGKAPNLLIYDASNLETGVPSRFSGSGSGTDFTLTISSLQPEDFATYYCQQSYITPYTFGQGTKLDIK
notes: Tested as full IgG
For B1, in assay [1], the binding result is “binds”. For the same molecule, the “EC50 (µg/ml), LAG3/MHC class II Blockade bioassay” value in assay [2] worked out at 0.655 µg/mL.

B2: LAG3-1E09_LS_1H04 (antibody, V domains shown)
VH: EVQLVESGGDLVKPGGSLRLSCAASGFSFSDHYMNWIRQAPGKGLEWVAYIDTSATYIYYADSVKGRFTISRDNAKNSLYLQMNSLRAEDTAVYYCARDNWGSLDYWGQGTLVTVSS
VL: DIQMTQSPSSLSASAGDRVTITCQASQDIRNSLSWYQQKPGKAPKLLIYDASNLETGVPSRFSGSGSGTYFTFTISSLQPEDFATYYCQQYDNVPVTFGGGTKLEIK
notes: Tested as full IgG
B2: the binding result in assay [3] was “no binding (tested: 2 µg/ml)”. Also, the “EC50 (µg/ml), LAG3/MHC class II Blockade bioassay” value in assay [2] came out at 0.284 µg/mL.

B3: LAG3-1E09_AM_1H07 (antibody, V domains shown)
VH: EVQLVESGGDLVQPGGSLRLSCAASGFSFNDHYMNWVRQAPGKGLEWVAYIDTSATYIYYADSVKGRFTISRDNAKNSLYLQMNSLRAEDTAVYYCARDNWGSLDYWGQGTLVTVSS
VL: DIQMTQSPSSLSASVGDRVTITCQASQDISNYLNWYQQKPGKAPKLLIYEASSLESGVPSRFSGSGSGTEFTLTINSLQPEDFATYYCQQSYSTPFAFGPGTKVEIK
notes: Tested as full IgG
In the case of B3, the binding result in assay [3] is “no binding (tested: 2 µg/ml)”. In assay [2], the “EC50 (µg/ml), LAG3/MHC class II Blockade bioassay” value worked out at 0.448 µg/mL.

B4: LAG3-1E09_AM_2E09 (antibody, V domains shown)
VH: EVQLVESGGDLVKPGGSLRLSCAASGFSFSDHYMNWVRQAPGKGLEWVAYIDTNATYIYYADSVKGRFTISRDNAKNSLYLQMNSLRAEDTAVYYCARDNWGSLDYWGQGTLVTVSS
VL: DIQMTQSSSSLSASVGDRVTITCQASQDITDFLNWYQQKPGKAPKLLIYDASNLETGIPSRFSGSGSGREFTLTINSLQPEDVASYYCQQSYTTPLTFGGGTKVDIK
notes: Tested as full IgG
Consider B4, for which the binding result in assay [1] is “binds”. Besides, the “EC50 (µg/ml), LAG3/MHC class II Blockade bioassay” value in assay [2] worked out at 0.482 µg/mL.

B5: LAG3-1E09_FR_1F03 (antibody, V domains shown)
VH: EVQLVESGGGLVKPGGSLRLSCAASGFSFSDHYMNWIRQAPGKGLEWVAYIDTSATYIYYADSVKGRFTISRDNAKNSLYLQMNSLRAEDTAVYYCARDNWGSLDYWGQGTLVTVSS
VL: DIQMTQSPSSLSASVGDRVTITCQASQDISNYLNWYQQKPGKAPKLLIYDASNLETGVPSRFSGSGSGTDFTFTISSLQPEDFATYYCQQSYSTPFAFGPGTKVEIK
notes: Tested as full IgG
As for B5, the binding result in assay [1] was “binds”. Besides, the “EC50 (µg/ml), LAG3/MHC class II Blockade bioassay” value in assay [2] amounted to 0.485 µg/mL.

B6: LAG3-1E09_AM_1B03 (antibody, V domains shown)
VH: EVQLVESGGDLVQPGGSLRLSCAASGFSFNDHYMNWIRQAPGKGLEWVAYIDTSATYIYYADSVKGRFTISRDNAKNSLYLQMNSLRAEDTAVYYCARDNWGSLDYWGQGTLVTVSS
VL: DIQMTQSPSSLSASVGDRVTMTCQASQDVSNYLNWYQQKPGKAPKLLIYDASNLEIGVPSRFSGSGSGTDFTFTISSLQPEDTATYYCQQYDHLPPYTFGQGTKLEIK
notes: Tested as full IgG
In the case of B6, the binding result in assay [3] is “no binding (tested: 2 µg/ml)”. In addition, in assay [2], the “EC50 (µg/ml), LAG3/MHC class II Blockade bioassay” value came out at 1.82 µg/mL.

B7: LAG3-1E09_LS_1G11 (antibody, V domains shown)
VH: EVQLVESGGDLVQPGGSLRLSCAASGFNFSDHYMNWVRQAPGKGLEWVAYIDTTATYIYYADSVKGRFTISRDNAKNSLYLQMNSLRAEDTAVYYCARDNWGSLDYWGQGTLVTVSS
VL: DIQMTQSPSSLSASVGDRVTITCQASQDIDKYLNWYQQKPGKAPKLLIYDASNLETGVPSRFSGSGSGTDFTLTISSLQPEDFATYYCQQSYSTPNTFGQGTKLDIK
notes: Tested as full IgG
On to B7, for which the binding result in assay [1] is “binds”. The “EC50 (µg/ml), LAG3/MHC class II Blockade bioassay” value in assay [2] worked out at 1.51 µg/mL.

B8: LAG3-1E09_AM_2G11 (antibody, V domains shown)
VH: EVQLVESGGDLVKPGGSLRLSCAASGFSFTDHYMNWVRQAPGKGLEWVAYIDTSATYIYYADSVKGRFTISRDNAKNSLYLQMNSLRAEDTAVYYCARDNWGSLDYWGQGTLVTVSS
VL: DIQMTQSPSSLSASVGDRVTITCRASQSISYYLNWYQQRPGKAPKLLIYDASNLETGVPSRFSGSGTGTEFTLTISSLQPEDFATYYCQQSYSTPFAFGPGTKVEIK
notes: Tested as full IgG
For B8, the binding result in assay [1] is “binds”. The “EC50 (µg/ml), LAG3/MHC class II Blockade bioassay” value in assay [2] came out at 0.246 µg/mL.

B9: LAG3-1E09_AM_1F09 (antibody, V domains shown)
VH: EVQLVESGGDLVKPGGSLRLSCAASGFNFSDHYMNWIRQAPGKGLEWVAYIDTSATYIYYADSVKGRFTISRDNAKNSLYLQMNSLRAEDTAVYYCARDNWGSLDYWGQGTLVTVSS
VL: DIQMTQSPSSLSASVGDRVTITCQASQDIRNYLGWYQQKPGKAPNLLIYDASTLETGVPSRFSGSGSGTDFTLAISSLQPEDFATYYCQQSYSTPYTFGQGTKLEIK
notes: Tested as full IgG
As to B9, the binding result in assay [3] is “no binding (tested: 2 µg/ml)”. Moreover, the “EC50 (µg/ml), LAG3/MHC class II Blockade bioassay” value in assay [2] turned out to be 0.488 µg/mL.

B10: LAG3-1E09_FR_1A10 (antibody, V domains shown)
VH: EVQLVESGGGLVKPGGSLRLSCAASGFSFSDHYMNWIRQAPGKGLEWVAYIDTSATYIYYADSVKGRFTISRDNAKNSLYLQMNSLRAEDTAVYYCARDNWGSLDYWGQGTLVTVSS
VL: DIQMTQSPSSLSASVGDRVTITCQANQDISNYLNWYQQKPGKAPKLLIYDASNLETGVPSRFSGGGSGTDFTLTINNLQPEDFATYYCHHSYNTPITFGQGTRLEIK
notes: Tested as full IgG
In the case of B10, the binding result in assay [1] is “binds”. The “EC50 (µg/ml), LAG3/MHC class II Blockade bioassay” value in assay [2] is 0.811 µg/mL.

B11: LAG3-1E09_LS_1E06 (antibody, V domains shown)
VH: EVQLVESGGDLVKPGGSLRLSCAASGFSFSDHYMNWIRQAPGKGLEWVAYIDTSATYIYYADSVKGRFTISRDNAKNSLYLQMNSLRAEDTAVYYCARDNWGSLDYWGQGTLVTVSS
VL: DIQMTQSPSSLSASVGDRVTITCQASQDISHYLNWYRQKPGKAPKLLIYDASNLETGVPSRFSGSGSGTLFTLTISSLQPEDFATYYCQQSYSTPYTFGQGTKLEIK
notes: Tested as full IgG
B11: the binding result in assay [1] was “binds”. For the same molecule, the “EC50 (µg/ml), LAG3/MHC class II Blockade bioassay” value in assay [2] was found to be 0.151 µg/mL.

B12: LAG3-1E09_FR_1G07 (antibody, V domains shown)
VH: EVQLVESGGGLVKPGGSLRLSCAASGFSFSDHYMNWVRQAPGKGLEWVAYIDTSATYIYYADSVKGRFTISRDNAKNSLYLQMNSLRAEDTAVYYCARDNWGSLDYWGQGTLVTVSS
VL: DIQMTQSPSSLSASVGDRVTITCRASQGISTYLNWYQQKPGKAPKLLIYDASNLETGVPSRFSGSGSGTDFTLTISGLQPDDFALYYCQQSYTTPYSFGPGTKVEIK
notes: Tested as full IgG
As for B12, the binding result in assay [1] is reported as “binds”. In assay [2], the “EC50 (µg/ml), LAG3/MHC class II Blockade bioassay” value was 0.242 µg/mL.

B13: LAG3-1E09_AM_2H06 (antibody, V domains shown)
VH: EVQLVESGGDLVKPGGSLRLSCAASGFTFSDHYMNWVRQAPGKGLEWVAYIDTIATYIYYADSVKGRFTISRDNAKNSLYLQMNSLRAEDTAVYYCARDNWGSLDYWGQGTLVTVSS
VL: DIQMTQSPSSLSASVGDRVTITCQASQDISNYLNWYQQTPGKAPKLLIYDASNLETGVPSRFSGSGSGTDFTLTISSLQPEDFATYYCQQGYGTPYTYGQGTKLEIK
notes: Tested as full IgG
Regarding B13, the binding result in assay [1] is “binds”. The “EC50 (µg/ml), LAG3/MHC class II Blockade bioassay” value in assay [2] worked out at 0.606 µg/mL.

B14: LAG3-1E09_CDR_1E03 (antibody, V domains shown)
VH: EVQLVESGGDLVKPGGSLRLSCAASGFTFNDHYMNWIRQAPGKGLEWVAYIDTTATYIYYADSVKGRFTISRDNAKNSLYLQMNSLRAEDTAVYYCARDNWGSLDYWGQGTLVTVSS
VL: DIQMTQSLSSLSASVGDSVTITCQASQDISNYLNWYRQKPGKAPELLIYDTSNLETGVPSRFSGSGSGTDFTLTISSLQPEDFATYYCQQSYSIPYTFGQGTKVEIK
notes: Tested as full IgG
Take B14: the binding result in assay [1] was “binds”. Also, in assay [2], the “EC50 (µg/ml), LAG3/MHC class II Blockade bioassay” value worked out at 1.06 µg/mL.

B15: LAG3-1E09_LS_1A10 (antibody, V domains shown)
VH: EVQLVESGGDLVKPGGSLRLSCAASGFSFSDHYMNWIRQAPGKGLEWVAYIDTSATYIYYADSVKGRFTISRDNAKNSLYLQMNSLRAEDTAVYYCARDNWGSLDYWGQGTLVTVSS
VL: not shown
notes: Tested as full IgG
For the molecule B15, the binding result in assay [4] was “binds”; in assay [3], “no binding (tested: 2 µg/ml)”.
